Data as given in patent US20090104231A1.

Legend:
[1] = biological target: NS3 CD4 peptide … presented by MHC of C57B1 mice (Hepatitis C virus)
[2] = biological target: NS3 CD8 peptide … presented by MHC of C57B1 mice (Hepatitis C virus)
[3] = biological target: NS5B CD4 peptide … presented by MHC of C57BL/6 mice (Hepatitis C virus)
[4] = biological target: NS5B CD8 peptide … presented by MHC of C57BL/6 mice (Hepatitis C virus)
[5] = biological target: purified HCV NS5B protein (genotype 1b) from Mikrogen (Hepatitis C virus genotype 1b)
[6] = biological target: NS3 CD4 peptide … presented by MHC of C57B1 mice (Hepatitis C virus); remark: listed apart in the source
[7] = biological target: NS3 CD8 peptide … presented by MHC of C57B1 mice (Hepatitis C virus); remark: listed apart in the source
[8] = biological target: purified HCV NS3 protein (genotype 1b) from Mikrogen (Hepatitis C virus genotype 1b)
[9] = biological target: NS4B CD4 peptide … presented by MHC of Balb/c mice (Hepatitis C virus)
[10] = biological target: NS4B CD8 peptide … presented by MHC of Balb/c mice (Hepatitis C virus)
[11] = biological target: purified HCV NS4 protein (genotype 1b) from Mikrogen (Hepatitis C virus genotype 1b)
[12] = biological target: NS3 CD4 peptide … presented by MHC of C57B1 mice (Hepatitis C virus); remark: listed apart in the source
[13] = biological target: NS3 CD8 peptide … presented by MHC of C57B1 mice (Hepatitis C virus); remark: listed apart in the source

Substance	intracellular cytokine staining of IFNγ and IL2 (fold over the Core 191 group) [1]	intracellular cytokine staining of IFNγ and IL2 (fold over the Core 191 group) [2]	IFNγ-producing T cells, intracellular cytokine staining (frequency (unit not given)) [3]	IFNγ-producing T cells, intracellular cytokine staining (frequency (unit not given)) [4]	IFNγ-producing T cells, intracellular cytokine staining (frequency (unit not given)) [5]	IFNγ-producing T cells, intracellular cytokine staining (frequency (unit not given)) [6]	IFNγ-producing T cells, intracellular cytokine staining (% of CD8+ cells (unit from paragraph 162)) [7]	IFNγ-producing T cells, intracellular cytokine staining (frequency (unit not given)) [8]	IFNγ-producing T cells, intracellular cytokine staining (frequency (unit not given)) [9]	IFNγ-producing T cells, intracellular cytokine staining (frequency (unit not given)) [10]	IFNγ-producing T cells, intracellular cytokine staining (frequency (unit not given)) [11]	IFNγ-producing T cells, intracellular cytokine staining (frequency (unit not given)) [7]	intracellular cytokine staining (fold over the Core 191 group) [12]	intracellular cytokine staining (fold over the Core 191 group) [13]
T cells of C57BL mice immunised with gold beads co-coated with p7313ieNS3, p7313ieNS5B and p7313ieCore151 (cells without a defined receptor)	2	2												
splenocytes of mice immunised with DNA encoding NS5B as single antigen (cells without a defined receptor)			0.26	1.67	0.1									
splenocytes of C57BL mice immunised with DNA encoding polyprotein HCV 530 (NS5B-Core-NS3-NS4B) (cells without a defined receptor)			0.7	0.12	0.06	0.21	4.89	0.15	0.1	0.37	0.17			
splenocytes of C57BL mice immunised with DNA encoding polyprotein HCV 520 (NS4B-NS5B-Core-NS3) (cells without a defined receptor)			0.18	0.08	0.09	0.28	3.32	0.14	0.05	0.33	0.08			
splenocytes of C57BL mice immunised with DNA encoding polyprotein HCV 510 (NS3-NS4B-NS5B-Core) (cells without a defined receptor)			0.29	0.11	0.1	0.29	3.95	0.17	0.09	0.34	0.09			
splenocytes of C57BL mice immunised with DNA encoding polyprotein HCV 501 (Core (66-191)-(1-65)-NS3-NS4B-NS5B) (cells without a defined receptor)			0.13	0.09	0.03	0.08		0.05	0.06	0.13	0.09	0.16		
splenocytes of C57BL mice immunised with DNA encoding polyprotein HCV 500 (Core-NS3-NS4B-NS5B) (cells without a defined receptor)			0.43	0.35	0.14	0.38	5.54	0.27	0.1	0.6	0.09			
T cells of C57BL mice immunised with gold beads co-coated with p7313ieNS3/NS4B/NS5B triple fusion together with core 151 (cells without a defined receptor)													2	2
splenocytes of C57BL mice immunised with DNA encoding NS3 alone (cells without a defined receptor)						0.24	4.4	0.29						
splenocytes of mice immunised with DNA encoding NS4B as single antigen (cells without a defined receptor)									0.18	2.04	0.17			
